Experimental data from patent US20150093799A1.

Assays:
[1] = biological target: anti-Jo-1 antibodies (commercially available, from human patient samples) (human); assay: immunodepletion: HRS polypeptide on NHS-agarose (Affi-gel 10), anti-Jo-1 antibodies (RDL) at 1:1,000, titre by ELISA before and after
[2] = biological target: anti-Jo-1 antibodies (commercially available, from human patient samples) (human); assay: competitive ELISA: soluble competitor pre-incubated with anti-Jo-1 serum; competitor is plate-bound full-length wild-type HisRS; A450
[3] = biological target: anti-Jo-1 antibodies (commercially available, from human patient samples) (human); assay: competitive ELISA: soluble competitor pre-incubated with anti-Jo-1 serum; competitor is plate-bound full-length human wild-type HisRS; A450
[4] = biological target: anti-Jo-1 antibodies (commercially available, from human patient samples) (human); assay: competitive ELISA: soluble HisRS pre-incubated with anti-Jo-1 human serum at 1:2,000; competitor is plate-bound full-length wild-type HisRS; A450
[5] = biological target: anti-Jo-1 antibodies (commercially available, from human patient samples) (human); assay: competitive ELISA, full-length histidyl-tRNA synthetase on the plate

Row | Binder | percent of detectable Jo-1 antibodies removed [1] | IC50 (read off the curve) [2] | IC50 (read off the curve) [3] | IC50 (read off the curve) [4] | concentration above which competition is seen [5]
1 | Full-length histidyl-tRNA synthetase (HRS), His-tagged (enzyme) MAERAALEELVKLQGERVRGLKQQKASAELIEEEVAKLLKLKAQLGPDESKQKFVLKTPKGTRDYSPRQMAVREKVFDVIIRCFKRHGAEVIDTPVFELKETLMGKYGEDSKLIYDLKDQGGELLSLRYDLTVPFARYLAMNKLTNIKRYHIAKVYRRDNPAMTRGRYREFYQCDFDIAGNFDPMIPDAECLKIMCEILSSLQIGDFLVKVNDRRILDGMFAICGVSDSKFRTICSSVDKLDKVSWEEVKNEMVGEKGLAPEVADRIGDYVQQHGGVSLVEQLLQDPKLSQNKQALEGLGDLKLLFEYLTLFGIDDKISFDLSLARGLDYYTGVIYEAVLLQTPAQAGEEPLGVGSVAAGGRYDGLVGMFDPKGRKVPCVGLSIGVERIFSIVEQRLEALEEKIRTTETQVLVASAQKKLLEERLKLVSELWDAGIKAELLYKKNPKLLNQLQYCEEAGIPLVAIIGEQELKDGVIKLRSVTSREEVDVRREDLVEEIKRRTGQPLCICAAALEHHHHHH | 93% | 30 pM | 300 pM | 800 pM | –
2 | HRS(1-506) (enzyme) MAERAALEELVKLQGERVRGLKQQKASAELIEEEVAKLLKLKAQLGPDESKQKFVLKTPKGTRDYSPRQMAVREKVFDVIIRCFKRHGAEVIDTPVFELKETLMGKYGEDSKLIYDLKDQGGELLSLRYDLTVPFARYLAMNKLTNIKRYHIAKVYRRDNPAMTRGRYREFYQCDFDIAGNFDPMIPDAECLKIMCEILSSLQIGDFLVKVNDRRILDGMFAICGVSDSKFRTICSSVDKLDKVSWEEVKNEMVGEKGLAPEVADRIGDYVQQHGGVSLVEQLLQDPKLSQNKQALEGLGDLKLLFEYLTLFGIDDKISFDLSLARGLDYYTGVIYEAVLLQTPAQAGEEPLGVGSVAAGGRYDGLVGMFDPKGRKVPCVGLSIGVERIFSIVEQRLEALEEKIRTTETQVLVASAQKKLLEERLKLVSELWDAGIKAELLYKKNPKLLNQLQYCEEAGIPLVAIIGEQELKDGVIKLRSVTSREEVDVRREDLVEEIKRRTGQPL | < 99% | – | 300 pM | – | –
3 | Resokine (HRS(1-60)), His-tagged (peptide) MAERAALEELVKLQGERVRGLKQQKASAELIEEEVAKLLKLKAQLGPDESKQKFVLKTPKHHHHHH | 20% | – | – | – | > 100 nM
